Data set [1] deals with the molecule itself. The data set can be described thus: SEC; purified BiP proteins at 50 µM in HKM buffer (50 mM HEPES-KOH pH 7.4, 150 mM KCl, 10 mM MgCl2), 16 hr at room temperature, no added nucleotide; SEC-3 HPLC column, A230 nm. (In gel filtration, larger molecules generally elute earlier.)
Data set [2] concerns the molecule itself. The data set can be described thus: native gel or EMSA; purified BiP proteins (30-50 µM) on a Tris-glycine native gel (4.5% stacking, 7.5% separation), Coomassie stain or immunoblot; with or without ATP (3-5 mM). On the technique in general: In EMSA bound probe runs differently from free probe, usually more slowly.
Data set [3] concerns the target T1, wildtype hamster BiP, N-terminally hexahistidine-tagged (hamster, UniProt G3I8R9 19-654).
T1 construct: BiP (GRP78), hamster; Construct details are in Supplementary file 1; also called wt BiP; wildtype BiP; source: E. coli M15 (pQE10), purified (Ni-NTA); not shown: His6, N-terminal, kept
The data set can be described thus: SEC; wildtype BiP (50 µM) incubated 16 hr with 1 mM peptide in HKM, SEC-3 column; competition of peptides with oligomerisation. The settings on record: both partners purified.

In data set [4] the target is T1, wildtype hamster BiP, N-terminally …. The data set can be described thus: SEC; BiP protein (50 µM) with 1 µM lucifer yellow-labeled tracer (peptide or BiP V461F), 16 hr in HKM; A230 nm and LY fluorescence recorded; with or without SubA (36 ng/µl) before the run. The settings on record: both partners purified.

Where no end group is shown, it is not given here.

T1 sequence (G3I8R9 19-654): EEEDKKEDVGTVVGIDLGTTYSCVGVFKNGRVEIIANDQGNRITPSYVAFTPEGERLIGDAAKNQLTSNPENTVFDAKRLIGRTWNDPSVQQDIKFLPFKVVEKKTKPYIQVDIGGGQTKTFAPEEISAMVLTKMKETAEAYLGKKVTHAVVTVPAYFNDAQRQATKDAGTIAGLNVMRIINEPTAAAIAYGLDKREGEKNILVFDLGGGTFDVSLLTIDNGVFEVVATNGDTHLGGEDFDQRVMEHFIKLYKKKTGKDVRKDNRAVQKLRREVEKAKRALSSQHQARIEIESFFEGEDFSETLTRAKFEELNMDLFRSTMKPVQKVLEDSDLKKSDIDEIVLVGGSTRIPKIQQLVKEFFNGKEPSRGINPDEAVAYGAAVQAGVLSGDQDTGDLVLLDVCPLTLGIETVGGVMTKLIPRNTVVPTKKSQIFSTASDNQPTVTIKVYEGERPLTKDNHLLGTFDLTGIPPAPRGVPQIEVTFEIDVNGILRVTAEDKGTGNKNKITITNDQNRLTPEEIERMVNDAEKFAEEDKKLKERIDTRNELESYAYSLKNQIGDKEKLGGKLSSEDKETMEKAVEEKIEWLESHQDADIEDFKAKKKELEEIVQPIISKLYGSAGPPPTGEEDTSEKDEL

B1: BiP^lidless, hamster BiP lacking its C-terminal lid (∆554–654) (domain or fragment)
chain: not shown
notes: Construct details are in Supplementary file 1; also called lidless BiP; source: E. coli, purified; not shown: His6, N-terminal, kept
Take B1: the binding result in data set [1] was “binds”.

B2: BiP^G226D, hamster BiP mutant locked in the domain-uncoupled state (natural protein)
chain: not shown
notes: BiP (GRP78), hamster; Construct details are in Supplementary file 1; source: E. coli, purified; not shown: His6, N-terminal, kept
Take B2: in data set [2], the binding result is given as “binds”.

B3: BiP^T229A, ATPase activity-deficient mutant of hamster BiP (natural protein)
chain: not shown
notes: BiP (GRP78), hamster; Construct details are in Supplementary file 1; source: E. coli M15 (pQE10), purified (Ni-NTA); not shown: His6, N-terminal, kept
On to B3, for which, in data set [2], the binding result was “binds”.

B4: peptide derived from the interdomain linker of BiP (DTGDLVLLD) (peptide)
peptide: DTGDLVLLD
notes: interdomain linker of BiP (GRP78), hamster; also called Linker Pep; linker peptide
In the case of B4, the binding result in data set [3] is recorded as “binds”.

B5: BiP-binding peptide HTFPAVL (peptide)
peptide: HTFPAVL
notes: well-characterized BiP substrate peptide (Marcinowski et al., 2011); also called BiP substrate peptide
Turning to B5, the binding result in data set [3] is on record as “binds”.

B6: lucifer yellow-labeled BiP-binding peptide (HTFPAVL-LY) (peptide)
peptide: HTFPAVL-{lucifer yellow}
notes: BiP substrate peptide (Marcinowski et al., 2011), fluorescently labelled; also called Pep-LY
Consider B6, for which, in data set [4], the “ratio of fluorescent to quantity signal R^(FLU/A230 nm), peak II (peak I set to 1.00)” value was 0.48 and the “ratio of fluorescent to quantity signal R^(FLU/A230 nm), peak III (peak I set to 1.00)” value is 0.26.

B7: BiP^T37G, hamster BiP mutant locked in the domain-uncoupled state (natural protein)
chain: not shown
notes: as for B2
As to B7, in data set [2], the binding result is “binds”.

For the origin of these results see publication PMC4608358, “Physiological modulation of BiP activity by trans-protomer engagement of the interdomain linker” (eLife, 2015).
